T1: purified recombinant murine IL9, 125I labelled (murine, UniProt P15247, 125I label)
T1 sequence: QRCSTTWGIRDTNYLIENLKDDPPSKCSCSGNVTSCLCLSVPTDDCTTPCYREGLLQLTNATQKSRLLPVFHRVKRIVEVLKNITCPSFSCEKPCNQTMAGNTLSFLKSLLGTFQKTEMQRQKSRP


Target: T1, purified recombinant murine IL9, 125I …
Assay: Scatchard analysis on transfected COS cells
Method: In order to make sure that clone p9RA1 and all subsequent clones did in fact express IL9R. Scatchard analysis was carried out on transfected COS cells, following Goodwin et al., Cell 60: 941–951 (1990). […] This is slightly higher than the dissociation constant measured on TS1 cells previously, i.e., 67 pM.

Binder	Kd
murine IL-9 receptor encoded by clone p9RA1 (receptor) VSVPEQGGGGQKAGAFTCLSNSIYRIDCHWSAPELGQESRAWLLFTSNQVTEIKHKCTFWDSMCTLVLPFEEVFLPFDNFTITLHRCIMGQEQVSLVDSQYLPRRHIKLDPPSDLQSNVSSGRCVLTWGINLALEPLITSLSYELAFKRQEEAWEQARHKDRIVGVTWLILEAVELNPGSIYEARLRVQMTLESYEDKTEGEYYKSHWSEWSQPVSFPSPQRRQGLLVPRWQWSASILVVVPIFLLLTGFVHLLFKLSPRLKRIFYQNIPSPEAFFHPLYSVYHGDFQSWTGARRAGPQARQNGVSTSSAGSESSIWEAVATLTYSPACPVQFACLKWEATA	0.194 nM
murine IL-9 receptor encoded by clone p9RC4 (receptor) VSVPEQGGGGQKAGAFTCLSNSIYRIDCHWSAPELGQESRAWLLFTSNQVTEIKHKCTFWDSMCTLVLPFEEVFLPFDNFTITLHRCIMGQEQVSLVDSQYLPRRHIKLDPPSDLQSNVSSGRCVLTWGINLALEPLITSLSYELAFKRQEEAWEARHKDRIVGVTWLILEAVELNPGSIYEARLRVQMTLESYEDKTEGEYYKSHWSEWSQPVSFPSPQRRQGLLVPRWQWSASILVVVPIFLLLTGFVHLLFKLSPRLKRIFYQNIPSPEAFFHPLYSVYHGDFQSWTGARRAGPQARQNGVSTSSAGSESSIWEAVATLTYSPACPVQFACLKWEATAPGFPGLPGSEHVLPAGCLELEGQPSAYLPQEDWAPLGSARPPPPDSDSGSSDYCMLDCCEECHLSAFPGHTESPELTLAQPVALPVSSRA	0.126 nM

From patent US5789237, “Nucleic acid sequences coding for or complementary to nucleic acid sequences coding for interleukin 9 receptor” (Ludwig Institute for Cancer Research, dated 1998)
